Experimental data taken from PMC5732959, “BnaA.bZIP1 Negatively Regulates a Novel Small Peptide Gene, BnaC.SP6, Involved in Pollen Activity”.
Where a chain is given by its changes, count along the chain named.

Legend:
BnaA.bZIP1-His [1] = target: T1, BnaA.bZIP1-His (Brassica napus, UniProt A0A078IFD5 1-139); assay: EMSA; EMSA: 10 ul with 2 ul 5x EMSA/Gel-Shift Binding Buffer (Beyotime), 30 nM Cy5 probe, 30 min at 25 C; 6% native PAGE, 0.5x TBE pH 8.3, 4 C; details: protein: recombinant, tags: His, pET-32a fusion (N-terminal vector tag), blunt
T1 sequence: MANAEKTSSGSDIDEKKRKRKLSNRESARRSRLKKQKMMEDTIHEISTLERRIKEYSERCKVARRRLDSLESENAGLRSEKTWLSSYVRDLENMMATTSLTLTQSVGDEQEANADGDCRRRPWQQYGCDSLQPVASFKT

BnaA.bZIP1-His [2] = target: T1, BnaA.bZIP1-His; assay: competition; unlabeled probe at 200x, 400x, 800x reduces shift of Cy5-p59; EMSA: 10 ul with 2 ul 5x EMSA/Gel-Shift Binding Buffer (Beyotime), 30 nM Cy5 probe, 30 min at 25 C; 6% native PAGE, 0.5x TBE pH 8.3, 4 C; details: protein: recombinant; tags: His; pET-32a fusion (N-terminal vector tag); blunt

B1: p59 (dsDNA)
DNA 1: AACGAAAGCCACCTCACGTCGTGCTATTTTCGGTGTAACCTTAACGGTGGATCTTTAAA
DNA 2: TTTAAAGATCCACCGTTAAGGTTACACCGAAAATAGCACGACGTGAGGTGGCTTTCGTT
Q: Does B1 bind (BnaA.bZIP1-His [1]; label: Cy5 (p59-CY5-F strand))?
A: binds

B2: p59 unlabeled competitor (dsDNA)
DNA 1: B1 DNA 1
DNA 2: B1 DNA 2
Q: Does B2 bind (BnaA.bZIP1-His [2])?
A: binds

B3: mp59 (dsDNA)
DNA 1: B1 DNA 1 with A16T, C17A, G18T, T19G, C20A
DNA 2: B1 DNA 2 with G40T, A41C, C42A, G43T, T44A
Q: Does B3 bind (BnaA.bZIP1-His [1]; label: Cy5 (mp59-CY5-F strand))?
A: no binding
